Data reported in patent US20240166765A1 (ICONIC THERAPEUTICS, published 2024).
Where two headings read alike, the source gives them in different places.

Tests used:
[1] = biological target: T1, pig TF ECD-His (pig TF-His) protein (pig (Sus scrofa)); assay: Biacore, antibody captured by anti-human IgG on CM5 chip, pig TF-His as analyte, 1:1 model
T1 construct: Extracellular domain with a C-terminal TG-His6 tag, used as analyte in Biacore; also called pTF
T1 chain: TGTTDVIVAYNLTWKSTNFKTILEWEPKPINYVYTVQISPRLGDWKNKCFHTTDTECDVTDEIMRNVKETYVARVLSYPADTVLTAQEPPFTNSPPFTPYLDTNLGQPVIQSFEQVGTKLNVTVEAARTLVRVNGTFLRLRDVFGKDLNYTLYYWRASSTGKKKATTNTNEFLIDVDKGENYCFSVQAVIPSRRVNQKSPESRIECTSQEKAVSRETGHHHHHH

[2] = biological target: human Tissue Factor (hTF), endogenously expressed on human TF-positive cells (human, UniProt P13726 33-295); assay: cell-based or functional assay
[3] = biological target: T2, human TF ECD-His6 (human, UniProt P13726 33-251); assay: BLI (ForteBio Octet)
T2 construct: made in Expi293 cells; the entry holds the ECD with the C-terminal TG-His6; also called TF-His; hTF

[4] = biological target: T3, cynomolgus TF ECD-His6 (cynomolgus monkey (Macaca fascicularis)); assay: BLI (ForteBio Octet)
T3 construct: made in Expi293 cells; also called TF-His; cTF
T3 chain: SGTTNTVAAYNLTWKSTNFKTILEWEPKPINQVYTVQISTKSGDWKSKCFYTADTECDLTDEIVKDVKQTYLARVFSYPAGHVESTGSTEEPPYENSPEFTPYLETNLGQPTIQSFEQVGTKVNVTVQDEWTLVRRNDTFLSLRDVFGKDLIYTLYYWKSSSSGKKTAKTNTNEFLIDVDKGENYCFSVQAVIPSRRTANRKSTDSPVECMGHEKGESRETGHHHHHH

[5] = biological target: T4, mouse TF ECD-His6 (mouse, UniProt P20352 29-251); assay: BLI (ForteBio Octet)
T4 construct: made in Expi293 cells; also called TF-His; mTF

[6] = biological target: T2, human TF ECD-His6; assay: SPR (Biacore), antibody on chip, TF-His titrated
[7] = biological target: T3, cynomolgus TF ECD-His6; assay: SPR (Biacore), antibody on chip, TF-His titrated
[8] = biological target: T5, hTF_K149N (human, UniProt P13726 33-251); assay: live cell staining of transfected HEK293, flow cytometry
T5 construct: the entry already holds K149N; on transfected HEK293 cells; not shown: transmembrane and cytoplasmic part of the construct expressed on HEK293 cells
T5 chain: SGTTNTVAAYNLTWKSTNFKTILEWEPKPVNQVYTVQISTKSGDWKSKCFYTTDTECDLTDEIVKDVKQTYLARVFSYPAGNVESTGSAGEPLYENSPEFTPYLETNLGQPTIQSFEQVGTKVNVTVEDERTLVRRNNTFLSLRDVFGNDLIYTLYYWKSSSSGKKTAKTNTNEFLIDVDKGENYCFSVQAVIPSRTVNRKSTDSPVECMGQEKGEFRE

[9] = biological target: T6, hTF_N171H_T197K (human, UniProt P13726 33-251); assay: as above
T6 construct: the entry already holds N171H and T197K; on transfected HEK293 cells
T6 chain: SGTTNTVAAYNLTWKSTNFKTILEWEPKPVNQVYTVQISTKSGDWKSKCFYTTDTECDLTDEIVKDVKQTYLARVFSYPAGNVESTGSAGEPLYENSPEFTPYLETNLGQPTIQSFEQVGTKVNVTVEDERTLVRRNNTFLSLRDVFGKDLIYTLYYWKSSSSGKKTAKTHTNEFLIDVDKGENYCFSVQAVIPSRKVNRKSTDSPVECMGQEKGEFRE

[10] = biological target: rTF (rat TF) on HEK293 cells (rat, UniProt P42533 29-252); assay: as above
[11] = biological target: T4, mouse TF ECD-His6; assay: SPR (Biacore), antibody on chip, TF-His titrated
[12] = biological target: T7, rTF (rat TF) (rat, UniProt P42533 29-252); assay: live cell staining, flow cytometry
T7 construct: Expressed on the surface of transfected HEK293 cells

[13] = biological target: T8, h1-77_r (human/rat chimera); assay: live cell staining, flow cytometry
T8 construct: Human TF with ECD residues 1-77 replaced by the rat segment; on HEK293 cells

[14] = biological target: T9, h1-107_r (human/rat chimera); assay: live cell staining, flow cytometry
T9 construct: on HEK293 cells
T9 chain: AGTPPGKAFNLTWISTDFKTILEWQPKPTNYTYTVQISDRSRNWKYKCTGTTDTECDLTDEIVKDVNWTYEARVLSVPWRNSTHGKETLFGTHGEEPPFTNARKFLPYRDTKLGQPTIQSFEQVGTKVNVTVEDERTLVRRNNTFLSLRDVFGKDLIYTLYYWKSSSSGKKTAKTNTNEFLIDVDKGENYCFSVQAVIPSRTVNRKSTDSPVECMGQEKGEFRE

[15] = biological target: T10, h78-107_r.v2 (human/rat chimera); assay: live cell staining, flow cytometry
T10 construct: on HEK293 cells

[16] = biological target: T7, rTF (rat TF); assay: live cell staining, flow cytometry; remark: listed apart in the source
[17] = biological target: T11, r141-194_h (rat/human chimera, UniProt P42533 29-252); assay: live cell staining, flow cytometry
T11 construct: on HEK293 cells

[18] = biological target: T12, hTF_N171H_T197K (human, UniProt P13726 33-251); assay: live cell staining, flow cytometry
T12 construct: on HEK293 cells
T12 chain: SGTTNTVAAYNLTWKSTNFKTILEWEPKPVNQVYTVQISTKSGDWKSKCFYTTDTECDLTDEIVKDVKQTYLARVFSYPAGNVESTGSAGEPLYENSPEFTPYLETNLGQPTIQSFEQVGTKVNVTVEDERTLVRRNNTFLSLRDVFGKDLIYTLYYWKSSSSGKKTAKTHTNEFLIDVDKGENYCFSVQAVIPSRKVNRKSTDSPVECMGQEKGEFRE

[19] = biological target: T13, hTF (human, UniProt P13726 33-251); assay: live cell staining, flow cytometry
T13 construct: also called human TF; human Tissue Factor

Binder	Kd [3] [nM]	Kd [4] [nM]	Kd [5] [nM]	Kd [6] [nM]	Kd [7] [nM]	binding result [8]	binding result [9]	binding result [10]	also measured
anti-TF antibody 43D8 (antibody, human IgG1, kappa, V domains shown, Human IgG1) VH: QVQLQQWGAGLLKPSETLSLTCAVYGGSLSGYYWSWIRQPPGKGLEWIGEIGASGSTRYNPSLKSRVTISVDTSKNQFSLKLSSVTAADTAVYYCARDTPYYYEGGYYYYMDVWGKGTTVTVSS VL: EIVLTQSPGTLSLSPGERATLSCRASQSVSSSFLAWYQQKPGQAPRLLIYGAYSRATGIPDRFSGSGSGTDFTLTISRLEPEDFAVYYCQQAGVVPYTFGGGTKVEIKR									Kd [1]: 12.9 nM; % GM-CSF, 2.56 nM antibody, MDA-MB-231 cells + FVIIa [2]: 57%; % GM-CSF, 6.4 nM antibody, MDA-MB-231 cells + FVIIa [2]: 24%; % GM-CSF, 16 nM antibody, MDA-MB-231 cells + FVIIa [2]: 11%; % GM-CSF, 40 nM antibody, MDA-MB-231 cells + FVIIa [2]: 11%; % GM-CSF, 100 nM antibody, MDA-MB-231 cells + FVIIa [2]: 12%
anti-TF antibody 25G9 (antibody, human IgG1, kappa, V domains shown, Human IgG1) VH: QVQLVQSGAEVKKPGASVKVSCKASGYTFRSYGISWVRQAPGQGLEWMGWVAPYSGNTNYAQKLQGRVTMTTDTSTSTAYMELRSLRSDDTAVYYCARDAGTYSPYGYGMDVWGQGTTVTVSS VL: DIQMTQSPSTLSASVGDRVTITCQASQSIDSWLAWYQQKPGKAPKLLIYSASYLESGVPSRFSGSGSGTEFTLTISSLQPDDFATYYCQRFQSLPPFTFGGGTKVEIKR									Kd [1]: 3.31 nM; % GM-CSF, 2.56 nM antibody, MDA-MB-231 cells + FVIIa [2]: 60%; % GM-CSF, 6.4 nM antibody, MDA-MB-231 cells + FVIIa [2]: 34%; % GM-CSF, 16 nM antibody, MDA-MB-231 cells + FVIIa [2]: 26%; % GM-CSF, 40 nM antibody, MDA-MB-231 cells + FVIIa [2]: 26%; % GM-CSF, 100 nM antibody, MDA-MB-231 cells + FVIIa [2]: 25%
25A (antibody, human IgG1, V domains shown, human IgG1) VH: QVQLVQSGAEVKKPGASVKVSCKASGYTFDVYGISWVRQAPGQGLEWMGWIAPYNGNTNYAQKLQGRVTMTTDTSTSTAYMELRSLRSDDTAVYYCARDAGTYSPFGYGMDVWGQGTTVTVSS VL: DIQMTQSPSTLSASVGDRVTITCRASQSISSWLAWYQQKPGKAPKLLIYKASSLESGVPSRFSGSGSGTEFTLTISSLQPDDFATYYCQQFQSLPPFTFGGGTKVEIK	8.45	7.65	263	6.2	5.42	no binding	no binding	no binding (tested: 15 µg/ml (100 nM))	
25G1 (antibody, human IgG1, kappa, V domains shown, human IgG1) VH: QVQLVQSGAEVKKPGASVKVSCKASGYTFRSYGISWVRQAPGQGLEWMGWVAPYSGNTNYAQKLQGRVTMTTDTSTSTAYMELRSLRSDDTAVYYCARDAGTYSPYGYGMDVWGQGTTVTVSS VL: DIQMTQSPSTLSASVGDRVTITCRASHSIDSWLAWYQQKPGKAPKLLIYKASYLESGVPSRFSGSGSGTEFTLTISSLQPDDFATYYCQLFQSLPPFTFGGGTKVEIKR	3.97	4.99	34.2		0.78	no binding	no binding	no binding (tested: 15 µg/ml (100 nM))	Kd [11]: 5.4 nM
25G9 (antibody, human IgG1, kappa, V domains shown, human IgG1) VH: QVQLVQSGAEVKKPGASVKVSCKASGYTFRSYGISWVRQAPGQGLEWMGWVAPYSGNTNYAQKLQGRVTMTTDTSTSTAYMELRSLRSDDTAVYYCARDAGTYSPYGYGMDVWGQGTTVTVSS VL: DIQMTQSPSTLSASVGDRVTITCQASQSIDSWLAWYQQKPGKAPKLLIYSASYLESGVPSRFSGSGSGTEFTLTISSLQPDDFATYYCQRFQSLPPFTFGGGTKVEIKR	35.8	42.9	9.16	13.3	16.4	no binding	no binding	no binding (tested: 15 µg/ml (100 nM))	Kd [11]: 2.9 nM
25A3 (antibody, human IgG1, kappa, V domains shown, human IgG1) VH: QVQLVQSGAEVKKPGASVKVSCKASGYTFDVYGISWVRQAPGQGLEWMGWIAPYSGNTNYAQKLQGRVTMTTDTSTSTAYMELRSLRSDDTAVYYCARDAGTYSPFGYGMDVWGQGTTVTVSS VL: DIQMTQSPSTLSASVGDRVTITCQASQSINNWLAWYQQKPGKAPKLLIYKAYNLESGVPSRFSGSGSGTEFTLTISSLQPDDFATYYCQLFQSLPPFTFGGGTKVEIKR	1.67	1.36	131	0.36	0.21		no binding	no binding (tested: 15 µg/ml (100 nM))	
29E (antibody, human IgG1, V domains shown, Human IgG1) VH: QVQLVESGGGVVQPGRSLRLSCAASGFTFRSYGMHWVRQAPGKGLEWVAVITYDGINKYYADSVEGRFTISRDNSKNTLYLQMNSLRAEDTAVYYCARDGVYYGVYDYWGQGTLVTVSS VL: not shown									Percent antibody binding to TF construct relative to hTF [12]: 0%; Percent antibody binding to TF construct relative to hTF [13]: 0%; Percent antibody binding to TF construct relative to hTF [14]: 0%; Percent antibody binding to TF construct relative to hTF [15]: 0%; Percent antibody binding to TF construct relative to hTF [16]: 0%; Percent antibody binding to TF construct relative to hTF [17]: 0%; Percent antibody binding to TF construct relative to hTF [18]: 98%; Percent antibody binding to TF construct relative to hTF [19]: 100%
1F (antibody, human IgG1, V domains shown, Human IgG1) VH: EVQLLESGGGLVQPGGSLRLSCAASGFTFSDYAMGWVRQAPGKGLEWVSTISGSGGLTYYADSVKGRFTISRDNSKNTLYLQMNSLRAEDTAVYYCAKAPYGYYMDVWGKGTTVTVSS VL: not shown									Percent antibody binding to TF construct relative to hTF [12]: 0%; Percent antibody binding to TF construct relative to hTF [13]: 0%; Percent antibody binding to TF construct relative to hTF [14]: 0%; Percent antibody binding to TF construct relative to hTF [15]: 0%; Percent antibody binding to TF construct relative to hTF [16]: 0%; Percent antibody binding to TF construct relative to hTF [17]: 0%; Percent antibody binding to TF construct relative to hTF [18]: 83%; Percent antibody binding to TF construct relative to hTF [19]: 100%
